The nature of this series: soluble on expression in E. coli; label from the status in PepcDB or PDB records.
For the sequence “MGSDKIHHHHHHMVEKLASSEVANRLNEWYDTIKQQDVERASKLRNEVQEAINQMEEDQNVLQYFNLIDSRFRQVIEEFDKSKTILKSIKNQTERSETDQLLRYYYFFFNGLYEFYKRNYIQAIHYYRQAENFLISIPDEIEHAEFHIQLANAYYGIEQNFFSLSHAKKALNIYLNHENYVNRLITTQLTIAANELDLKQYGSAETLYKKAIKTASEHNHAFMEVLGYFNLGICYELQDKLEFARDCFEAALDISYPQENKRDSYLRIKYMLARTLFKMELVDEAMDWFEDAQTLVDATNEETYQAKLKIIYSIYKTYDETSIDNGLEVLREKKLWHDVSDLTTNAARHFKKKEMFKLATKYFSEALLAKEKIPMLHKEVESE”, the “soluble on expression in E. coli” value was “not soluble”. Turning to “MFNALLLTQQDKITHATVTQINDDQLPAGNVTVAVNYSSLNYKDGLAITGKGKIIREFPMVPGIDFAGTVLESADARYQVGDAVVLTGWGVGENHWGGMAQKARLNADWLVKLPQGLTSQQAMMIGTAGFTAMLCVQALIDGGIKPEDGEILVTGASGGVGSVAVTLLAQLGYKVVAVTGRVAQNGPLLEQLGASRVIDRQEFSEASRPLEKQLWVGAVDTVGSKVLAKVLAQMHYNGVVAACGLAGGFDLPTTVMPFILRNVRLQGVDSVSCPVEKRLAAWKKLAELLPASYYAQACHEISLSQVPEYAEAITNGQVTGRVVVKL”, the “soluble on expression in E. coli” value was “not soluble”. The entry for “MARVVVLGAGIGGLPTAYELKHRLGDRHEVILVSDVDRFTFIPGLVAVALGHNSLERLQVPLETVSRRHGLRWVQGKVQRLAPQEKKIYLPEQALDYDYLVIATGAELAVDLIPGLGIHSHSVCTPAHAVAAQRAWQEFLKEPRDLVVGAAPGASCFGPAYEFLFLAEHALRHHGLRDRVKITFITPEPYVGHLGIGGLANSDQLTRNLIEKRGIETITNAEITAIEPHRILLRDRPVIPFGYSMILPPFRGVPFVRASGLGNEKGFLPLLPTLQHPNYPEIYGVGISVHLPPLEVTPVPVGVPKTGQMTEEMAIAASHNIAVALGELVADPVVPTLDALCFADFGNTGIAYIAAPVIPEPPGENRRLACALQGLWVSWVKAAFERYFLLKMRWGLGVPWFEQWGLRLFFGLSLVRPLQPTVFPEQQPIMKVLEHHHHHH” is “not soluble”. Then “MSLIREAQRSELPAILELWLESTTWGHPFIKANYWRDCIPLVRDAYLANAQNWVWEEDGKLLGFVSIMEGRFLAAMFVAPKAVRRGIGKALMQYVQQRHPHLMLEVYQKNQPAINFYQAQGFHIVDCAWQDETQLPTWIMSWPVVQTLEGGSHHHHHH”, with “soluble”; and “MKEKISEKEYKALIRKTGKEHFDGEKEEYGDGTVGVWTYELRKYKLKPPVKVKYVTQEQFQEYKDSNNQRLIKIENKVDKLVEIVQIHGEQIKAQGETLQLILQTLQKMSDRLDKMEKRIDKLESK”, with “soluble”; and “MQERHTEQDYRALLIADTPIIDVRAPIEFEHGAMPAAINLPLMNNDERAAVGTCYKQQGSDAALALGHKLVAGEIRQQRMDAWRAACLQNPQGILCCARGGQRSHIVQSWLHAAGIDYPLVEGGYKALRQTAIQATIELAQKPIVLIGGCTGSGKTLLVQQQPNGVDLEGLARHRGSAFGRTLQPQLSQASFENLLAAEMLKTDARQNLRLWVLEDESRMIGSNHLPECLRERMTQAAIAVVEDPFEIRLERLNEEYFLRMHHDFTHAYGDEQGWQEYCEYLHHGLSAIKRRLGLQRYNELAARLDAALTTQLTTGSTDGHLAWLVPLLEEYYDPMYRYQLEKKAEKVVFRGEWAEVAEWVKAR”, with “soluble”.

“MSTDEERIYSIALTQIPGVGHIGAKRLVDGMGSATDVFRYRTELPDRLPGVNRAVVAALDSPQALKRAEQEYEFARNNRISCFTLADEDYPSRLRECDDAPVVLFFKGKANLNALHIINMVGTRNATDYGKHICVSFLQELQMLCPDVLVVSGLAYGIDINAHRSALSVELPTVGVLAHGLDRIYPSLHRKTAIDMLRQGGLLTEFLSGTNPDKHNFISRNRIVAGISDATIVVESAAKGGSLITADIAGSYHRDCFAFPGRVTDEYSKGCNQLIQDNKAVLLESASDFVKTMGWDSDLKSVKPETVQRNLFPDLSAEELRIVDILGKLGDLQINALMVQADIPINKISAILFELEMKGVIRVLAGGVYQLLR”: the “soluble on expression in E. coli” value is “not soluble”.

Source of the values: the DeepSol protein solubility set.
